Test results as given in patent publication US20220228157A1, “GENE EDITING IN DIVERSE BACTERIA” (priority 2019, published 2022).

Experiments:
L. rhamnosus = assay type: cell-based; conditions: L. rhamnosus
Procedure: Finally, the model for RecT was used to establish recombineering in L. rhamnosus, a well-studied probiotic used to treat a variety of illnesses including diarrhea and bacterial vaginosis. Although the L. rhamnosus SSB and L. lactis SSB only have 47% identity, they share identical SSB C-terminal tail 7 amino acids. It was determined whether LrpRecT (which functions in L. lactis) is portable to L. rhamnosus, while the other RecT proteins would not be functional.

E. coli = assay: Editing efficiency by NGS, non-coding mismatch at a non-essential gene; assay type: cell-based, Escherichia coli; conditions: silent mismatch MAGE oligo, SEER plasmid system
Procedure: Top-performing SSAPs and SSAP/SSB pairs from experiments in E. coli, L. lactis, and M. smegmatis are shown in FIG. 2A, FIG. 2B and FIG. 2C, respectively. Bars in red are the proteins that had previously been reported in the literature. The proteins listed were found after ten rounds of selection for protein variants that enabled the introduction of an oligonucleotide that conferred a genomic edit that provided antibiotic resistance. Unbiased editing efficiency was tested in each case by introducing a non-coding base change at a non-essential gene and measuring the frequency of incorporation via next generation sequencing.
Their recombineering efficiency was tested against Redβ expressed off of its wild-type codons on the same plasmid system used for the SEER selections. […]
The efficiency of each SSAP or SSAP/SSB pair was measured by expressing them off of their host-specific plasmid in the naïve parent strain and running a recombineering cycle with an oligo that confers a 4-nucleotide non-coding mismatch in a non-essential gene. The allele was then amplified by PCR and editing efficiency was measured by next-generation sequencing.
To measure single locus editing, a recombineering cycle was run with an oligo that confers a single base pair non-coding mismatch in a non-essential gene. The allele was then amplified by PCR and editing efficiency was measured by NGS as described above. […]

[1] = system: Klebsiella pneumoniae ATCC 10031; assay: Recombineering efficiency by LacZ screening; assay type: cell-based; conditions: pORTMAGE-based constructs
Source text: (§1) To test the activity of PapRecT and CspRecT in these three organisms, the broad-host-range pORTMAGE system (Nyerges et al., Proc. Natl. Acad. Sci. U.S.A. 113, 2502-2507 (2016)) was built on as described above. For experiments in E. coli PapRecT or CspRecT was subcloned in place of Redβ into pORTMAGE311B (Szili et al., Antimicrob. Agents Chemother. AAC.00207-19 (2019) doi:10.1128/AAC.00207-19) (FIGS. 10A-10B; Addgene accession: #120418), which transiently disrupts MMR with EcMutL_E32K, and whose RSF1010 origin of replication and m-toluic-acid-based expression system allows the plasmid to be deployed over a broad range of bacterial hosts (Honda et al., Proc. Natl. Acad. Sci. U.S.A. 88, 179-183 (1991); Gawin et al., Microb. Biotechnol. 10, 702 (2017)). These same pORTMAGE-based constructs were used for testing in C. freundii and K. pneumoniae. […]
(§2) Oligos were designed to introduce I) premature STOP codons into lacZ for E. coli, K. pneumoniae, and C. freundii, or II) RpsL K43→R; GyrA T83→I; ParC S83→L; RpoB D521→V, or a premature STOP codon into nfxB for P. aeruginosa. […] After recovery overnight, cells were plated at empirically-determined dilutions to a density of 200-500 colonies per plate. […] In all cases, allelic-replacement frequencies were calculated by dividing the number of recombinant CFUs by the number of total CFUs. […]

[2] = system: Citrobacter freundii ATCC 8090; assay: Recombineering efficiency by LacZ screening; assay type: cell-based; conditions: pORTMAGE-based constructs
Source text: as §1, §2

E. coli MG1655 = assay: DIvERGE mutagenesis of gyrA, gyrB, parC, parE with ciprofloxacin selection; assay type: cell-based, Escherichia coli; conditions: one round of DIvERGE

B1: Redβ: Redβ SSAP from Enterobacteria phage λ, SEQ ID NO: 474 (protein)
chain: MSTALATLAGKLAERVGMDSVDPQELITTLRQTAFKCDASDAQFIALLIVANQYGLNPWTKEIYAFPDKQNGIVPVVGVDGWSRIINENQQFDGMDFEQDNESCTCRIYRKDRNHPICVTEWMDECRREPFKTREGREITGPWQSHPKRMLRHKAMIQCARLAFGFAGIYDKDEAERIVENTAYTAERQPERDITPVNDETMQEINTLLIALDKTWDDDLLPLCSQIFRRDIRASSELTQAEAVKALGFLKQKATEQKVAA
modifications: Bacteriophage Lambda
L. rhamnosus
  Oligonucleotide incorporation: negligible activity

B2: PapRecT: SSAP from Pseudomonas aeruginosa, SEQ ID NO: 24, UniParc ID: UPI0001E9E6CB (protein, listed as Pseudomonas aeruginosa)
chain: MGTALTPLLTKFATRYEMGTTPEEVANTLKQTCFKGQVNDSQMVALLIVADQYKLNPFTKELYAFPDKNNGIVPVVGVDGWARIINENPQFDGMEFSMDQQGTECTCKIYRKDRSHAISATEYMAECKRNTQPWQSHPRRMLRHKAMIQCARLAFGFAGIYDQDEAERIVERDVTPAEQYEDVSEAICLIKDSPTMEDLQAAFSNAWKAYKTKGARDQLTAAKDQRKKELLDAPIDVEFEETGDDRAA
L. rhamnosus
  Oligonucleotide incorporation: negligible activity
E. coli
  Efficiency of recombineering at ynfF by NGS: 31%±2%

B3: CspRecT: RecT SSAP (UniParc ID: UPI0001837D7F) from a phage of Collinsella stercoris (protein)
chain: MNQIVKFTDDSGLAVQVTPDDVRRYICENATEKEVGLFLQLCQTQRLNPFVKDAYLVKYGGAPASMITSYQVFNRRACRDANYDGIKSGVVVLRDGDVVHKRGAACYKKAGEELIGGWAEVRFKDGRETAYAEVALDDYSTGKSNWAKMPGVMIEKCAKAAAWRLAFPDTFQGMYAAEEMDQAQQPEQVRAQAEQPVDLQPIRELFKPYCEHFGITPAEGMTAVCGAVGAEGMHSMTEQQARRARAWMEEEMAAPAVEAEYEVVDEGEVF
modifications: Collinsella stercoris DSM 13279
[1]
  Editing performance in K. pneumoniae: optimal choice of protein
[2]
  Editing performance in C. freundii: optimal choice of protein
E. coli MG1655; 250 ng/mL CIP, 130 oligos
  Colonies relative to Redβ and PapRecT: more than ten times as many colonies
E. coli MG1655; 1,000 ng/mL CIP
  Resistant variants produced: only the use of CspRecT produced resistant variants
